Reference: patent publication US20220162337A1 (NATIONAL RESEARCH COUNCIL OF CANADA, published 2022)

Key:
[1] = molecular target: T1, intact Her2 expressed at the cell surface (human, UniProt P04626 23-1255); assay: flow cytometry on SKOV3 cells, apparent KD, pH 6.0; FSA, SKOV3 cells, pH 6.0
T1 construct: whole, on cells; also called Her2 on SKOV3 cells; Her2 on JIMT-1 cells
Method: (§1) The cells were washed twice in 200 μL binding buffer, followed by addition of 120 μL 1.0% propidium iodide and samples were then transferred to Multiscreen 96-well plates (60 μm Nylon Mesh, Millipore, Etobicoke, ON) and filtered by centrifugation. The filtrate samples were collected from the Multiscreen receiver plate and transferred to a new V-bottom polypropylene plate at 4° C. Flow cytometric analysis was performed on a BD LSR-Fortessa instrument (BD Biosciences, San Jose, Calif.). […] Median fluorescence intensity (MFI) was reported by analyzing 3000 alive cells per sample with the gating strategy: all cells/singlets/alive cells (PI negative) using BD FACSDiva software (BD Biosciences).
(§2) The designed variants were then reformatted into human IgG1/k FSAs and re-tested on the high-density Her2 cells.

[2] = molecular target: T1, intact Her2 expressed at the cell …; assay: flow cytometry on SKOV3 cells, pH 6.8 vs pH 7.3
Method: as §1, §2

[3] = molecular target: T1, intact Her2 expressed at the cell …; assay: flow cytometry on SKOV3 cells, apparent KD, pH 6.8; FSA, SKOV3 cells, pH 6.8
Method: as §1, §2

[4] = molecular target: T1, intact Her2 expressed at the cell …; assay: flow cytometry on SKOV3 cells, apparent KD, pH 7.3 (Bmax not reached)
Method: as §1, §2

[5] = molecular target: T1, intact Her2 expressed at the cell …; assay: flow cytometry on SKOV3 cells, apparent KD, pH 5.6; FSA, SKOV3 cells, pH 5.6
Method: as §1, §2

[6] = molecular target: T1, intact Her2 expressed at the cell …; assay: flow cytometry (FACS) on SKOV3 cells, full-size antibody, pH 6.0
Method: (§3) Cells in T-75 flasks were washed twice with D-PBS and then dissociated using Cell Dissociation buffer (Sigma, C5914) at 37° C. […] The cells were then washed twice by centrifugation at 233×g, removal of supernatant by aspiration and resuspending the cells in 200 μL binding buffer at 4° C. Detection reagent, either anti-human Fab or Fc AlexaFluor488-(Fab′)² (Jackson Immunochemicals, West Groove, Pa.), was then added at a final concentration of 10 μg/mL and samples were incubated at 4° C., 1 h. The cells were washed twice in 200 μL binding buffer, followed by addition of 120 μL 1.0% propidium iodide and samples were then transferred to Multiscreen 96-well plates (60 μm Nylon Mesh, Millipore, Etobicoke, ON) and filtered by centrifugation. The filtrate samples were collected from the Multiscreen receiver plate and transferred to a new V-bottom polypropylene plate at 4° C. Flow cytometric analysis was performed on a BD LSR-Fortessa instrument (BD Biosciences, San Jose, Calif.). […] Median fluorescence intensity (MFI) was reported by analyzing 3000 alive cells per sample with the gating strategy: all cells/singlets/alive cells (PI negative) using BD FACSDiva software (BD Biosciences).
as §2

[7] = molecular target: T1, intact Her2 expressed at the cell …; assay: flow cytometry (FACS) on SKOV3 cells, full-size antibody, pH 5.2
Method: as §3, §2

[8] = molecular target: T1, intact Her2 expressed at the cell …; assay: flow cytometry on SKOV3 cells, pH 6.0 vs pH 7.3
Method: as §1, §2

[9] = molecular target: T1, intact Her2 expressed at the cell …; assay: flow cytometry (FACS) on SKOV3 cells, full-size antibody, pH 6.4
Method: as §3, §2

[10] = molecular target: T1, intact Her2 expressed at the cell …; assay: flow cytometry on SKOV3 cells, apparent KD, pH 6.4; FSA, SKOV3 cells, pH 6.4
Method: as §1, §2

[11] = molecular target: T1, intact Her2 expressed at the cell …; assay: flow cytometry on SKOV3 cells, apparent KD, pH 5.2; FSA, SKOV3 cells, pH 5.2
Method: as §1, §2

[12] = molecular target: T1, intact Her2 expressed at the cell …; assay: cell-based or functional assay
[13] = molecular target: T1, intact Her2 expressed at the cell …; assay: flow cytometry on SKOV3 cells, apparent KD, pH 6.4
[14] = molecular target: T1, intact Her2 expressed at the cell …; assay: flow cytometry on SKOV3 cells, apparent KD, pH 5.2
[15] = molecular target: T1, intact Her2 expressed at the cell …; assay: flow cytometry on SKOV3 cells, apparent KD, pH 6.8
[16] = molecular target: T1, intact Her2 expressed at the cell …; assay: flow cytometry on SKOV3 cells, apparent KD, pH 5.6
[17] = molecular target: T1, intact Her2 expressed at the cell …; assay: flow cytometry (FACS) on SKOV3 cells, full-size antibody, pH 7.3
[18] = molecular target: T1, intact Her2 expressed at the cell …; assay: flow cytometry on JIMT-1 cells (low Her2 density), full-size antibody, pH 6.0
[19] = molecular target: T1, intact Her2 expressed at the cell …; assay: flow cytometry on SKOV3 cells, apparent KD, pH 7.3
[20] = molecular target: T1, intact Her2 expressed at the cell …; assay: flow cytometry on JIMT-1 cells (low Her2 density), full-size antibody, pH 7.3
[21] = molecular target: T1, intact Her2 expressed at the cell …; assay: flow cytometry on SKOV3 cells, apparent KD, pH 6.0
[22] = molecular target: T1, intact Her2 expressed at the cell …; assay: flow cytometry on SKOV3 cells, apparent KD, pH 5.2 (Bmax not reached)
[23] = molecular target: T1, intact Her2 expressed at the cell …; assay: flow cytometry on SKOV3 cells, apparent KD, pH 7.3; remark: listed apart in the source
[24] = molecular target: T2, Recombinant human Her2 extracellular domain (human, UniProt P04626 23-652); assay: SPR, Fab over immobilized Her2 ectodomain, pH 5.0, 25 C
T2 construct: extracellular domain; also called Her2 ectodomain; recombinant Her2 ectodomain
Method: (§4) Fab-Her2 interactions were analyzed using a Biacore™ T200 (GE Healthcare, Missisauga, ON) surface plasmon resonance instrument. […] Recombinant human Her2 extracellular domain (ThermoFisher Scientific, Burlington, ON) was immobilized onto a CM-5 sensorchip along with a mock-activated blank control surface for referencing. Her2 was diluted to 10 μg/mL in 10 mM NaOAc immobilization buffer pH 4.5 (Biacore) and immobilized to approximately 200 RUs using the Biacore control software Immobilization Wizard with standard NHS/EDC amine coupling. […] Fab samples were injected at 100 4/min with a contact time of 90 s and a 1200-s dissociation using either pH 5.0 or 7.4 running buffer. Sensorgrams were double referenced to the mock-activated blank sensor surface and analyzed for kinetic determination using a 1:1 binding model in BiaEvaluation software v3.1 (GE Healthcare).

[25] = molecular target: T2, Recombinant human Her2 extracellular …; assay: SPR, Fab over immobilized Her2 ectodomain, pH 7.4, 25 C
Method: as §4

[26] = molecular target: T1, intact Her2 expressed at the cell …; assay: flow cytometry on SKOV3 cells, apparent KD, pH 5.2 (Bmax not reached); Fab, SKOV3 cells, pH 5.2 (acidic); approximate, Bmax not reached
Method: (§5) The cells were then washed twice by centrifugation at 233×g, removal of supernatant by aspiration and resuspending the cells in 200 μL binding buffer at 4° C. Detection reagent, either anti-human Fab or Fc AlexaFluor488-(Fab′)² (Jackson Immunochemicals, West Groove, Pa.), was then added at a final concentration of 10 μg/mL and samples were incubated at 4° C., 1 h. The cells were washed twice in 200 μL binding buffer, followed by addition of 120 μL 1.0% propidium iodide and samples were then transferred to Multiscreen 96-well plates (60 μm Nylon Mesh, Millipore, Etobicoke, ON) and filtered by centrifugation. The filtrate samples were collected from the Multiscreen receiver plate and transferred to a new V-bottom polypropylene plate at 4° C. Flow cytometric analysis was performed on a BD LSR-Fortessa instrument (BD Biosciences, San Jose, Calif.). […] Median fluorescence intensity (MFI) was reported by analyzing 3000 alive cells per sample with the gating strategy: all cells/singlets/alive cells (PI negative) using BD FACSDiva software (BD Biosciences).

[27] = molecular target: T2, Recombinant human Her2 extracellular …; assay: SPR, pH 5.0 vs pH 7.4
Method: as §4

[28] = molecular target: T2, Recombinant human Her2 extracellular …; assay: SPR, acidic pH 5.0 vs physiological pH 7.4, relative to the parent bH1
Method: as §4

[29] = molecular target: T1, intact Her2 expressed at the cell …; assay: flow cytometry on SKOV3 cells, pH 5.2, against bH1-P5 and bH1-P5P7 Fabs
Method: as §5

B1: bH1-P5P7-FSA (antibody, human IgG1, kappa, V domains shown)
VH: not shown
VL: DIQMTQSPSSLSASVGDRVTITCRASQDIPHSISGYVAWYQQKPGKAPKLLIYWGSYLYSGVPSRFSGSGSGTDFTLTISSLQPEDFATYYCQQHYTTPPTFGQGTKVEIKR
notes: also called bH1-P5P7 full-size antibody
Kd [1]: 9.7 nM
fold pH-selectivity, pH 6.8 over pH 7.3 [2]: ~25 fold
Kd [3]: 29.7 nM
Kd [4]: ~716 nM
Kd [5]: 9.5 nM
EC50 (read off the curve) [6]: ~10 nM
EC50 (read off the curve) [7]: ~8 nM
fold pH-selectivity, pH 6.0 over pH 7.3 [8]: > 10 fold
EC50 (read off the curve) [9]: ~20 nM
Kd [10]: 16 nM
Kd [11]: 8.4 nM

B2: bH1-P5P8-FSA (antibody, human IgG1, kappa, V domains shown)
VH: not shown
VL: DIQMTQSPSSLSASVGDRVTITCRASQDIPRHISGYVAWYQQKPGKAPKLLIYWGSYLYSGVPSRFSGSGSGTDFTLTISSLQPEDFATYYCQQHYTTPPTFGQGTKVEIKR
notes: also called bH1-P5P8 full-size antibody
Kd [3]: 21.7 nM
Kd [4]: ~290 nM
EC50 (read off the curve) [6]: ~10 nM
internalization of FITC conjugated antibody into BT474 cells, pH 6.4 [12]: 2 fold over negative control
EC50 (read off the curve) [7]: ~10 nM
EC50 (read off the curve) [9]: ~20 nM
Kd [10]: 15.1 nM
Kd [11]: 12.3 nM

B3: parental bH1-FSA (full-size human IgG1/k antibody) (antibody, V domains shown)
VH: not shown
VL: DIQMTQSPSSLSASVGDRVTITCRASQDIPRSISGYVAWYQQKPGKAPKLLIYWGSYLYSGVPSRFSGSGSGTDFTLTISSLQPEDFATYYCQQHYTTPPTFGQGTKVEIKR
Kd [13]: 2.9 nM
Kd [14]: 2.6 nM
EC50 (read off the curve) [6]: ~3 nM
Kd [15]: 2 nM
EC50 (read off the curve) [7]: ~3 nM
Kd [16]: 1.5 nM
EC50 (read off the curve) [17]: ~4 nM
EC50 (read off the curve) [18]: ~2 nM
Kd [19]: 4.1 nM
EC50 (read off the curve) [20]: ~2 nM
EC50 (read off the curve) [9]: ~3 nM
Kd [21]: 2.9 nM

B4: parental bH1-Fab (Fab, V domains shown)
VH: not shown
VL: DIQMTQSPSSLSASVGDRVTITCRASQDIPRSISGYVAWYQQKPGKAPKLLIYWGSYLYSGVPSRFSGSGSGTDFTLTISSLQPEDFATYYCQQHYTTPPTFGQGTKVEIKR
Kd [22]: ~41 nM
Kd [23]: 21.3 nM
Kd [24]: 13 nM
Kd [25]: 3 nM

B5: bH1-P6 (H-Y100aH) Fab (Fab, V domains shown)
VH: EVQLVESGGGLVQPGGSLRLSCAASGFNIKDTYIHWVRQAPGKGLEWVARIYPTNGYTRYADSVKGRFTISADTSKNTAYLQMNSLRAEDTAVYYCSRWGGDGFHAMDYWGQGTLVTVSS
VL: DIQMTQSPSSLSASVGDRVTITCRASQDIPRSISGYVAWYQQKPGKAPKLLIYWGSYLYSGVPSRFSGSGSGTDFTLTISSLQPEDFATYYCQQHYTTPPTFGQGTKVEIKR
Kd [25]: 10 nM
koff [25]: 0.0048 s⁻¹
kon [25]: 480000 M⁻¹ s⁻¹

B6: bH1-P7 (L-R30aH) Fab (Fab, V domains shown)
VH: not shown
VL: DIQMTQSPSSLSASVGDRVTITCRASQDIPHSISGYVAWYQQKPGKAPKLLIYWGSYLYSGVPSRFSGSGSGTDFTLTISSLQPEDFATYYCQQHYTTPPTFGQGTKVEIKR
Kd [24]: 17 nM
Kd [25]: 5.7 nM

B7: bH1-P8 (L-S30bH) Fab (Fab, V domains shown)
VH: not shown
VL: DIQMTQSPSSLSASVGDRVTITCRASQDIPRHISGYVAWYQQKPGKAPKLLIYWGSYLYSGVPSRFSGSGSGTDFTLTISSLQPEDFATYYCQQHYTTPPTFGQGTKVEIKR
Kd [24]: 9.9 nM
Kd [25]: 3.4 nM

B8: bH1-P5P7 (H-R58H,L-R30aH) Fab (Fab, V domains shown)
VH: not shown
VL: DIQMTQSPSSLSASVGDRVTITCRASQDIPHSISGYVAWYQQKPGKAPKLLIYWGSYLYSGVPSRFSGSGSGTDFTLTISSLQPEDFATYYCQQHYTTPPTFGQGTKVEIKR
notes: also called bH1-P5P7-Fab
Kd [26]: ~178 nM
Kd [24]: 90 nM
koff [24]: 0.0057 s⁻¹
kon [24]: 70000 M⁻¹ s⁻¹
Kd [25]: 530 nM
koff [25]: 0.021 s⁻¹
kon [25]: 40000 M⁻¹ s⁻¹
fold stronger binding at acidic pH than at physiological pH [27]: ~6 fold
ΔΔΔGbinding [28]: -1.93 kcal/mol

B9: bH1-P5P8 (H-R58H,L-S30bH) Fab (Fab, V domains shown)
VH: not shown
VL: DIQMTQSPSSLSASVGDRVTITCRASQDIPRHISGYVAWYQQKPGKAPKLLIYWGSYLYSGVPSRFSGSGSGTDFTLTISSLQPEDFATYYCQQHYTTPPTFGQGTKVEIKR
notes: also called bH1-P5P8-Fab; bH1-P5P8 Fab
Kd [26]: ~93 nM
fold stronger affinity than bH1-P5 and bH1-P5P7 [29]: ~2 fold
Kd [24]: 50 nM
koff [24]: 0.0037 s⁻¹
kon [24]: 90000 M⁻¹ s⁻¹
Kd [25]: 290 nM
koff [25]: 0.011 s⁻¹
kon [25]: 40000 M⁻¹ s⁻¹
fold stronger binding at acidic pH than at physiological pH [27]: ~6 fold
ΔΔΔGbinding [28]: -1.91 kcal/mol
